27 molecules from patent publication US20160279215A1, “NOVEL PEPTIDES AND COMBINATION OF PEPTIDES FOR USE IN IMMUNOTHERAPY AGAINST VARIOUS TUMORS” (immatics biotechnologies GmbH, priority 2015, published 2016) can be followed below.

This test has as its target T1, HLA-A*02:01 (human).
T1 construct: MHC monomers captured on streptavidin plates; the UV-sensitive peptide is cleaved and exchanged with the test peptide; also called peptide-receptive MHC molecules; MHC class I
Description: UV ligand-exchange ELISA (anti-b2m); +++ = exchange yield >=50. An excerpt:
Candidate peptides for T cell based therapies according to the present invention were further tested for their MHC binding capacity (affinity). The individual peptide-MHC complexes were produced by UV-ligand exchange, where a UV-sensitive peptide is cleaved upon UV-irradiation, and exchanged with the peptide of interest as analyzed. Only peptide candidates that can effectively bind and stabilize the peptide-receptive MHC molecules prevent dissociation of the MHC complexes. To determine the yield of the exchange reaction, an ELISA was performed based on the detection of the light chain (β2m) of stabilized MHC complexes. The assay was performed as generally described in Rodenko et al. (Rodenko et al., 2006).
96 well MAXISorp plates (NUNC) were coated over night with 2 ug/ml streptavidin in PBS at room temperature, washed 4× and blocked for 1 h at 37° C. in 2% BSA containing blocking buffer. Refolded HLA-A*02:01/MLA-001 monomers served as standards, covering the range of 15-500 ng/ml. Peptide-MHC monomers of the UV-exchange reaction were diluted 100 fold in blocking buffer. Samples were incubated for 1 h at 37° C., washed four times, incubated with 2 ug/ml HRP conjugated anti-β2m for 1 h at 37° C., washed again and detected with TMB solution that is stopped with […]. Absorption was measured at 450 nm. Candidate peptides that show a high exchange yield (preferably higher than 50%, most preferred higher than 75%) are generally preferred for a generation and production of antibodies or fragments thereof, and/or T cell receptors or fragments thereof, as they show sufficient avidity to the MHC molecules and prevent dissociation of the MHC complexes.

For ALFHMNILL, the peptide exchange yield lay in the range of 50 to 75%.

As to ALHPVQFYL, the peptide exchange yield lay within 50 to 75%.

GLQDGFQITV registered a peptide exchange yield of 50 to 75%.

IMPTFDLTKV registered a peptide exchange yield of 50 to 75%.

The molecule SLSTELFKV came in with a peptide exchange yield of 50 to 75%.

SLLDLVQSL: the peptide exchange yield fell in the range of 50 to 75%.

For AAIEIFEKV, the peptide exchange yield lay in the range of 50 to 75%.

Molecule VIIQNLPAL returned a peptide exchange yield of 50 to 75%.

RLIDIYKNV showed a peptide exchange yield of 50 to 75%.

Molecule SEWGSPHAAVP displayed a peptide exchange yield of 50 to 75%.

As to ILAVDGVLSV, the peptide exchange yield is 50 to 75%.

In turn, ALFETLIQL returned a peptide exchange yield of 50 to 75%.

Molecule YLMDDFSSL (also called COL6A3-015) showed a peptide exchange yield of 50 to 75%.

In turn, LVVDEGSLVSV (also called …) yielded a peptide exchange yield of 50 to 75%.

ALINVLNAL had a peptide exchange yield of 50 to 75%.

KLFETVEEL registered a peptide exchange yield of 50 to 75%.

Regarding ALSELERVL, the peptide exchange yield was in the range of 50 to 75%.

Regarding LMYPYIYHV, the peptide exchange yield fell in the range of 50 to 75%.

As to TLGEIIKGV, the peptide exchange yield lay within 50 to 75%.

In turn, RLYEEEIRI came in with a peptide exchange yield of 50 to 75%.

GLAGDNIYL: the peptide exchange yield lay within 50 to 75%.

For LLTTVLINA, the peptide exchange yield was 50 to 75%.

Consider ALSYILPYL, for which the peptide exchange yield was in the range of 50 to 75%.

As to ALADLSVAV, the peptide exchange yield was in the range of 50 to 75%.

In turn, LLWAPTAQA showed a peptide exchange yield of 50 to 75%.

Turning to VIFEGEPMYL (also called HORMAD1-001), the peptide exchange yield lay within 50 to 75%.

As to LLWPSSVPA, the peptide exchange yield was in the range of 50 to 75%.
